Patent US20230331852A1 (OSE IMMUNOTHERAPEUTICS, published 2023)
Like-named read-outs stand apart in the source and are kept apart here. Values belong to the binder of their own block, whether it stands above or below them.

Legend:
[1] = biological target: T1, recombinant human CLEC-1 protein with His Tag (#1704-CL R&D Systems) (human, UniProt Q8NC01 74-280); experiment: BLI (Blitz), CLEC1-His on Ni-NTA biosensor, antibody at 20 ug/mL; murine clone, FIG. 16
T1 construct: Bought protein; also called His-CLEC1; His Clec-1; not shown: His tag
T1 sequence: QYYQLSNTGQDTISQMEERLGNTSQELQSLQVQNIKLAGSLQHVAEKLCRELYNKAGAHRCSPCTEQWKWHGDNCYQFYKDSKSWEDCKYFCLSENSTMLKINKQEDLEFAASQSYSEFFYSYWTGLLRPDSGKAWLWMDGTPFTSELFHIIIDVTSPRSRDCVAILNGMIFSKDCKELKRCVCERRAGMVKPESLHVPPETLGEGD
Method: (§1) Analysis was performed with a BLItz System (Fortébio, #C22-2 No 61010-1, Molecular Devices, San José, USA).
(§2) The affinity of the anti-hCLEC1 antibodies, was measured with Blitz system (Forté Bio, C22-2 No 61010-1).

[2] = biological target: T2, human CLEC-1A expressed on the cell membrane (human, UniProt Q8NC01 1-280); experiment: flow cytometry on U266 cells
T2 construct: Endogenous on human U266 myeloma cells, on monocyte-derived TGFb-DC and macrophages; on CHO cells after transduction with a Clec-1 expressing lentivirus; also called U266 CLEC1; CLEC-1A on U266 cells
T2 sequence: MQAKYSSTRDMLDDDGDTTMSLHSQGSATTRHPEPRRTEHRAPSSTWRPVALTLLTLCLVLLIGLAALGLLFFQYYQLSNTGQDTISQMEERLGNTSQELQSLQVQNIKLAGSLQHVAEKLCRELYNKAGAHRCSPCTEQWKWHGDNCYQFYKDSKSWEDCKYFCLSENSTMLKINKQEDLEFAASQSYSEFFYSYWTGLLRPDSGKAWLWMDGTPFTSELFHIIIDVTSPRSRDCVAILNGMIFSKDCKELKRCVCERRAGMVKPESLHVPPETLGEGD
Method: (§3) Method: To measure binding of anti-CLEC1 on human U266 cell lines (pre-blocked with Fcblock to blocking FcR), antibodies at different concentrations were incubated for 30 min at 4° C., and washed before stained 30 min at 4° C. with PE-labelled anti-human IgG (Biolegend; reference 409304). Samples were analyzed on Cytoflex cytofluorometer (Beckman Coulter). The MFI of anti-CLEC1 was compared between all anti-CLEC1 antibodies and percentage of stained cells was analysed in all conditions.

[3] = biological target: T1, recombinant human CLEC-1 protein with …; experiment: ELISA on immobilised His-CLEC1 (from FIGURE 12)
Method: (§4) Method: The binding activity of the anti-hCLEC1 antibodies was assessed by ELISA (Enzyme-linked immunosorbent assay). […] A second ELISA assays was performed, like above, with immobilization of CLEC1-Fc (OSE Immunotherapeutics) at 2 μg/ml. A third ELISA assays was performed to see the cross-reactivity with mouse CLEC1. Like above, ELISA was made with immobilization of mouse Fc-CLEC1 (OSE Immunotherapeutics) at 2 μg/ml in carbonate buffer instead of His-Clec. Purified antibodies were added at different concentrations to measure binding. […] Control antibody is a commercial anti-CLEC-1A antibody.

[4] = biological target: T2, human CLEC-1A expressed on the cell …; experiment: flow cytometry on CHO-Clec-1 cells (from FIGURE 21)
Method: (§5) To measure binding of anti-clec on CHO-Clec-1 cells, human Fc Receptor Binding Inhibitor diluted at 1/200 (BD pharmingen; USA; reference 564220) was first added for 30 min at room-temperature to block human Fc receptors on CHO-Clec-1 cells to reduce background. Then, antibodies were incubated for 30 min at 4° C., and washed before stained 15 min at 4° C. with PE-labelled anti-human IgG Fc (Biolegend; USA; reference 409303). Samples were analyzed on citoflex (Beckman coulter)

[5] = biological target: T2, human CLEC-1A expressed on the cell …; experiment: flow cytometry on U266 cells, PE anti-human IgG; % positive cells
Method: as §3

[6] = biological target: T2, human CLEC-1A expressed on the cell …; experiment: flow cytometry on U266 cells, PE anti-human IgG; median fluorescence
Method: as §3

[7] = biological target: T2, human CLEC-1A expressed on the cell …; experiment: flow cytometry on CHO-Clec-1 cells, revealed with anti-hFc-PE; % positive cells
Method: as §5

[8] = biological target: T1, recombinant human CLEC-1 protein with …; experiment: Blitz biolayer interferometry, His-CLEC1 on Ni-NTA biosensor, antibody at 20 ug/mL
[9] = biological target: T2, human CLEC-1A expressed on the cell …; experiment: flow cytometry on CHO-Clec-1 cells, revealed with anti-hFc-PE; median fluorescence
Method: as §5

[10] = biological target: T3, Fc-CLEC1 labelled with Alexa Fluor 488 (human, Alexa Fluor 488 label (sites not given)); experiment: FACS competition: blocks Fc-CLEC1-A488 (10 nM) binding to CLEC-1 ligand on UV-treated PBMC
T3 construct: also called Fc-CLEC1-A488; Alexa488-Fc-Clec-1
T3 chain: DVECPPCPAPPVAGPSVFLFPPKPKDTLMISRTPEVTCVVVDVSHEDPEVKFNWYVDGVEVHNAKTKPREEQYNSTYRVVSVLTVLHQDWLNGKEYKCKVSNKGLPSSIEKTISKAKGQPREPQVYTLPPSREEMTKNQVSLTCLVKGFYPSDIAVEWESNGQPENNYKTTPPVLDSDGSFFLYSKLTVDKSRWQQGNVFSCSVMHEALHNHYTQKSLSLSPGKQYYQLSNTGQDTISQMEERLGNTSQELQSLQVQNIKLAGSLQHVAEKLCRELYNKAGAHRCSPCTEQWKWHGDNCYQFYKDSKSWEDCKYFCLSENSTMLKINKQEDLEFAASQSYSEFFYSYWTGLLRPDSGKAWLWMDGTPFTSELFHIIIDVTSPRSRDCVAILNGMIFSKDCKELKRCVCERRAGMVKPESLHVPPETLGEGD
Method: Competition were also measured on UV pre-treated pro-apoptotic human PBMCs, which can also express the ligand after a treatment under UV radiation for 18 hours. After UV treatment, cells were first washed in cold-PSE and then blocked during 30 min at room temperature with human Fc-block 50-fold diluted in PSE, and then replaced on ice. Purified anti-Clec antibodies at different concentrations were pre-incubated with Alexa488-Fc-Clec-1 in PSE at different concentrations for 15 min at room temperature. Pre-incubated mixes were then incubated on Fc-blocked/SAB (#34005-100, Invitrogen, Illkirch, France) pro-apoptotic PBMCs for 30 min on ice. Binding on cells were then fixed by PFA 2% in cold PBS for 10 min on ice and analyzed on CytoFlex cytofluorometer (Beckman Coulter France, Villepinte).
(§6) Methods. To measure competition on permeabilised Raji (CytoFix/cytoperm kit, BD Biosciences) which expressed CLEC1 ligand, Fc-CLEC1-labelled A488 which bound specifically to permeabilised Raji was used. To measure competition, Fc-CLEC1 labelled A488 at 10 nM or 20 nM was mixed with mouse anti-hCLEC1 at different concentrations for 15 min at RT then added on these cells for 30 min at 4° C. […] To measure competition on PMBC, we used human PBMC pre-treated by UV for 18 h to obtain apoptotic PBMC, which expressed CLEC1 ligand. Fc-CLEC1-labelled A488 bound specifically apoptotic UV-treated PBMC. To measure competition, Fc-CLEC1 labelled A488 at 10 nM was mixed with mouse anti-hCLEC1 at different concentrations for 15 min at RT then added on these cells for 30 min at 4° C.

[11] = biological target: T3, Fc-CLEC1 labelled with Alexa Fluor 488; experiment: FACS competition: blocks Fc-CLEC1-A488 (10 nM) binding to CLEC-1 ligand on permeabilised Raji cells; IC50 median
Method: To measure competition, purified anti-Clec antibodies at different concentrations were pre-incubated in Perm Wash Buffer with Alexa488-Fc-Clec-1 for 15 min at room temperature. Pre-incubated mixes were then incubated on permeabilized and Fc-blocked Raji cells for 30 min on ice. Binding on cells were then fixed by PFA 2% in cold PBS for 10 min on ice and analyzed on CytoFlex cytofluorometer (Beckman Coulter France, Villepinte).
as §6

[12] = biological target: T2, human CLEC-1A expressed on the cell …; experiment: flow cytometry on U266 cells; printed as ED50, read-out Mean
[13] = biological target: T2, human CLEC-1A expressed on the cell …; experiment: flow cytometry on U266 cells; printed as ED50, read-out % + cells
[14] = biological target: T1, recombinant human CLEC-1 protein with …; experiment: ELISA on immobilised human His-CLEC1 (column hm His Clec); given as ED50
Method: as §4

[15] = biological target: T1, recombinant human CLEC-1 protein with …; experiment: Blitz biolayer interferometry, His-CLEC1 on Ni-NTA biosensor, antibody at 20 ug/mL; remark: listed apart in the source
Method: as §1, §2

[16] = biological target: T3, Fc-CLEC1 labelled with Alexa Fluor 488; experiment: FACS competition: blocks Fc-CLEC1-A488 (10 nM) binding to CLEC-1 ligand on UV-treated PBMC; read-out Mean
Method: as §6

[17] = biological target: T3, Fc-CLEC1 labelled with Alexa Fluor 488; experiment: FACS competition: blocks Fc-CLEC1-A488 (10 nM) binding to CLEC-1 ligand on UV-treated PBMC; read-out % + cells
Method: as §6

[18] = biological target: T3, Fc-CLEC1 labelled with Alexa Fluor 488; experiment: FACS competition: blocks Fc-CLEC1-A488 (10 nM) binding to CLEC-1 ligand on permeabilised Raji cells; read-out Mean
Method: as §6

[19] = biological target: T3, Fc-CLEC1 labelled with Alexa Fluor 488; experiment: FACS competition: blocks Fc-CLEC1-A488 (20 nM) binding to CLEC-1 ligand on permeabilised Raji cells; read-out Mean
Method: as §6

[20] = biological target: T3, Fc-CLEC1 labelled with Alexa Fluor 488; experiment: FACS competition: blocks Fc-CLEC1-A488 (10 nM) binding to CLEC-1 ligand on permeabilised Raji cells; read-out % + cells
Method: as §6

[21] = biological target: T3, Fc-CLEC1 labelled with Alexa Fluor 488; experiment: FACS competition: blocks Fc-CLEC1-A488 (20 nM) binding to CLEC-1 ligand on permeabilised Raji cells; read-out % + cells
Method: as §6

- Kd [1]: ~1 nM
B1: murine anti-hCLEC1 antibody 21B1-E10 (antibody, V domains shown)
VH: QVQLKESGPGLVAPSQSLSITCTISGFSLTTYGIHWVRQPPGKGLEWLVVIWSDGSTIYNSALKSRLSISKDNSKSQVFLKMNSLQTDDTAIYYCARHGGYYNYFDYWGQGTTLTVSS
VL: DIVMSQSPSSLAVSVGEKVTLTCKSTQNLFYSTNQKNYLAWYQQKPGQSPKLLIYWASTRESGVPDRFTGSGSGTDFTLTISSVKAEDPAVYYCQQYYTYPWTFGGGTKLEIK
notes: tied to the 21B1 variable domains by name

- EC50 [2]: 0.258 µg/mL
- EC50 [3]: 0.326 µg/mL
- EC50 [4]: 0.123 µg/mL
- EC50 (read off the curve) [5]: ~0.2 µg/mL
- EC50 (read off the curve) [6]: ~0.3 µg/mL
- EC50 (read off the curve) [7]: ~0.1 µg/mL
- Kd [8]: 40.3 nM
- koff [8]: 0.00179 s⁻¹
- kon [8]: 44500 M⁻¹ s⁻¹
- EC50 (read off the curve) [9]: ~0.1 µg/mL
- IC50 [10]: 0.626 µg/mL
- IC50 [11]: 7.71 nM
B2: chimeric anti-CLEC-1A antibody 6C5 (antibody, human IgG4 S228P, kappa, V domains shown)
VH: QVQLQQSGPELVKPGASVKMSCKASGYTFTDYVISWVKQKTGQGLEWIGEIYPGSGNTYYNEKFKGKATLTADKSSSTAYIHLSSLTSEDSAVYFCAGGGSSHFDYWGQGTTLTVSS
VL: not shown
notes: also called 6C5chim; 6C5-VHwt-FcG4m / 6C5-VLwt-CLhk

- EC50 [12]: 0.033 µg/mL
- EC50 [13]: 0.0077 µg/mL
- Kd [1]: ~1 nM
- EC50 [14]: 0.00748 µg/mL
- Kd [15]: 2.91 nM
- koff [15]: 0.000787 s⁻¹
- kon [15]: 270000 M⁻¹ s⁻¹
- IC50 [16]: 2.7 µg/mL
- IC50 [17]: 0.36 µg/mL
- IC50 [18]: 1.5 µg/mL
- IC50 [19]: 0.72 µg/mL
- IC50 [20]: 8 µg/mL
- IC50 [21]: 0.7 µg/mL
B3: murine anti-hCLEC1 antibody 11H11-G11 (antibody, V domains shown)
VH: QIHLVQSGPELKKPGETVKISCKASGYTFTNFGMNWVKQAPGKGLKWMGWINTNTGEPTYADDFKGRFAFSLETSASTAYLQINNLKNEDTATYFCARGAPAWFTYWGQGTLVTVSA
VL: DIQMTQSPASLSASVGETVTITCRATENIYSYLAWYQQKQGKSPQFLVYNAKTLAEGMPSRFSGSGSGTQFSLKINILQPEDFGTYYCQHHFGTPLTFGAGTKLELK
notes: Mouse hybridoma antibody
